From patent US10280205B2, “Method for treating cancer with an activated T lymphocyte that selectively recognizes a cancer cell consisting of specific peptide” (immatics biotechnologies GmbH, priority 2015, dated 2019)

Target: HLA-A*02:01 (Homo sapiens, UniProt P04439, D140Y/D185E/D98H/E176V/E277Q/G131W/G231S/I119V/I121R/I166T/I218V/L300P/L318F/N151K/N90K/P208A/P217A/Q86G/Q94H/R138H/R169H/T345S)
Experiment: MHC binding assay: UV-ligand exchange with beta2m ELISA (exchange yield)
Details: binding to HLA-A*02:01, β2m ELISA
From the text: Candidate peptides for T cell based therapies according to the present invention were further tested for their MHC binding capacity (affinity). The individual peptide-MHC complexes were produced by UV-ligand exchange, where a UV-sensitive peptide is cleaved upon UV-irradiation, and exchanged with the peptide of interest as analyzed. Only peptide candidates that can effectively bind and stabilize the peptide-receptive MHC molecules prevent dissociation of the MHC complexes. To determine the yield of the exchange reaction, an ELISA was performed based on the detection of the light chain (β2m) of stabilized MHC complexes. The assay was performed as generally described in Rodenko et al. (Rodenko et al., 2006).
96 well MAXISorp plates (NUNC) were coated over night with 2 ug/ml streptavidin in PBS at room temperature, washed 4× and blocked for 1 h at 37° C. in 2% BSA containing blocking buffer. […] Peptide-MHC monomers of the UV-exchange reaction were diluted 100 fold in blocking buffer. Samples were incubated for 1h at 37° C., washed four times, incubated with 2 ug/ml HRP conjugated anti-β2m for 1h at 37° C., washed again and detected with TMB solution that is stopped with […]. Absorption was measured at 450 nm. Candidate peptides that show a high exchange yield (preferably higher than 50%, most preferred higher than 75%) are generally preferred for a generation and production of antibodies or fragments thereof, and/or T cell receptors or fragments thereof, as they show sufficient avidity to the MHC molecules and prevent dissociation of the MHC complexes.

Substance | Peptide exchange (MHC class I binding score, peptide exchange yield)
524 (ALIENLTHQI; listed as Homo sapiens) [compound 524] | “++” (≥20% = ++)
318 (GLINTGVLSV; listed as Homo sapiens) [compound 318] | “++” (≥20% = ++)
431 (SLVNVVPKL; listed as Homo sapiens) [compound 431] | “++” (≥20% = ++)
77 (ILVEADGAWVV; listed as Homo sapiens) [compound 77] | “++++” (≥75% = ++++)
168 (KILDADIQL; listed as Homo sapiens) [compound 168] | “++++” (≥75% = ++++)
216 (NLWEDPYYL; listed as Homo sapiens) [compound 216] | “+++” (≥50 = +++)
407 (YLMDLINFL; listed as Homo sapiens) [compound 407] | “+++” (≥50 = +++)
130 (FLWNGEDSALL; listed as Homo sapiens) [compound 130] | “+++” (≥50 = +++)
250 (ALSEEGLLVYL; listed as Homo sapiens) [compound 250] | “+++” (≥50 = +++)
507 (KLIDDQDISISL; listed as Homo sapiens) [compound 507] | “+++” (≥50 = +++)
147 (SLLEAVSFL; listed as Homo sapiens) [compound 147] | “+++” (≥50 = +++)
270 (LLLDEEGTFSL; listed as Homo sapiens) [compound 270] | “++” (≥20% = ++)
57 (TLAELQPPVQL; listed as Homo sapiens) [compound 57] | “+++” (≥50 = +++)
261 (YVLEFLEEI; listed as Homo sapiens) [compound 261] | “++” (≥20% = ++)
565 (ALQETPTSV; listed as Homo sapiens) [compound 565] | “++” (≥20% = ++)
14 (AAYGGLNEKSFV; listed as Homo sapiens) [compound 14] | “+++” (≥50 = +++)
336 (ILLTAIVQV; listed as Homo sapiens) [compound 336] | “+++” (≥50 = +++)
202 (ALLDQQGSRWTL; listed as Homo sapiens) [compound 202] | “+++” (≥50 = +++)
354 (LILEGVDTV; listed as Homo sapiens) [compound 354] | “++” (≥20% = ++)
255 (VLASYNLTV; listed as Homo sapiens) [compound 255] | “+++” (≥50 = +++)
432 (TLIEESAKV; listed as Homo sapiens) [compound 432] | “++” (≥20% = ++)

Substance | Peptide exchange (MHC class I binding score, peptide exchange yield)
34 (ILVEADSLWVV; listed as Homo sapiens) [compound 34] | “+++” (≥50 = +++)
149 (NLLELFVQL; listed as Homo sapiens) [compound 149] | “+++” (≥50 = +++)
17 (GLLPGDRLVSV; listed as Homo sapiens) [compound 17] | “+++” (≥50 = +++)
341 (SQIALNEKLVNL; listed as Homo sapiens) [compound 341] | “+++” (≥50 = +++)
544 (LLWDVPAPSL; listed as Homo sapiens) [compound 544] | “+++” (≥50 = +++)
172 (VLYSYTIITV; listed as Homo sapiens) [compound 172] | “++” (≥20% = ++)
142 (FLFATPVFI; listed as Homo sapiens) [compound 142] | “+++” (≥50 = +++)
12 (SLWPDPMEV; listed as Homo sapiens) [compound 12] | “+++” (≥50 = +++)
227 (ALMNTLLYL; listed as Homo sapiens) [compound 227] | “++” (≥20% = ++)
74 (ALLDPEVLSIFV; listed as Homo sapiens) [compound 74] | “+++” (≥50 = +++)
161 (ALLEGVNTV; listed as Homo sapiens) [compound 161] | “+++” (≥50 = +++)
383 (ALLELENSVTL; listed as Homo sapiens) [compound 383] | “+++” (≥50 = +++)
320 (KMFEFVEPLL; listed as Homo sapiens) [compound 320] | “++++” (≥75% = ++++)
429 (GLVNDLARV; listed as Homo sapiens) [compound 429] | “++” (≥20% = ++)
164 (ALLPQPKNLTV; listed as Homo sapiens) [compound 164] | “+++” (≥50 = +++)
27 (ILADIVISA; listed as Homo sapiens) [compound 27] | “+++” (≥50 = +++)
375 (SLTETIEGV; listed as Homo sapiens) [compound 375] | “++” (≥20% = ++)
229 (RLPGPLGTV; listed as Homo sapiens) [compound 229] | “++” (≥20% = ++)
490 (FLLQHVQEL; listed as Homo sapiens) [compound 490] | “+++” (≥50 = +++)
163 (ALDEMGDLLQL; listed as Homo sapiens) [compound 163] | “+++” (≥50 = +++)
501 (LLDPNVKSIFV; listed as Homo sapiens) [compound 501] | “+++” (≥50 = +++)

Substance | Peptide exchange (MHC class I binding score, peptide exchange yield)
549 (AMLENASDIKL; listed as Homo sapiens) [compound 549] | “+++” (≥50 = +++)
78 (SLFSSLEPQIQPV; listed as Homo sapiens) [compound 78] | “+++” (≥50 = +++)
62 (VLLDVSAGQLLM; listed as Homo sapiens) [compound 62] | “++++” (≥75% = ++++)
171 (LLLPLQILL; listed as Homo sapiens) [compound 171] | “+++” (≥50 = +++)
263 (LLVSNLDFGV; listed as Homo sapiens) [compound 263] | “+++” (≥50 = +++)
307 (ALPVSLPQI; listed as Homo sapiens) [compound 307] | “+++” (≥50 = +++)
252 (LLIGTDVSL; listed as Homo sapiens) [compound 252] | “+++” (≥50 = +++)
299 (YLLETSGNL; listed as Homo sapiens) [compound 299] | “+++” (≥50 = +++)
200 (LLFGSVQEV; listed as Homo sapiens) [compound 200] | “+++” (≥50 = +++)
15 (VLLTFKIFL; listed as Homo sapiens) [compound 15] | “++” (≥20% = ++)
612 (YLYNEGLSV; listed as Homo sapiens) [compound 612] | “+++” (≥50 = +++)
492 (SLFDGFADGLGV; listed as Homo sapiens) [compound 492] | “+++” (≥50 = +++)
35 (KINDTIYEV; listed as Homo sapiens) [compound 35] | “+++” (≥50 = +++)
274 (SLLFSLFEA; listed as Homo sapiens) [compound 274] | “++” (≥20% = ++)
302 (ALLQEGEVYSA; listed as Homo sapiens) [compound 302] | “+++” (≥50 = +++)
308 (SQYSGQLHEV; listed as Homo sapiens) [compound 308] | “+++” (≥50 = +++)
304 (MTLGQIYYL; listed as Homo sapiens) [compound 304] | “+++” (≥50 = +++)
251 (ALYTGFSILV; listed as Homo sapiens) [compound 251] | “++” (≥20% = ++)
339 (GLWEIENNPTVKA; listed as Homo sapiens) [compound 339] | “++++” (≥75% = ++++)
